This is an account of results in article PMC10303687 (Protein Science : A Publication of the Protein Society, 2023).

Ends that are not written are not given here.

What all share (details): both partners purified
Assay [1] concerns the target MDM2_(Fishes/Tetrapods)^ML. As to the kind of experiment: stopped-flow fluorescence kinetics; 10°C, 20 mM sodium phosphate pH 7.4, 150 mM NaCl, 1 mM TCEP; Trp23 emission; MDM2 constant at 0.5–2 μM, p53TAD varied 1–10 μM for k on; k off from displacement of the 1 μM:1 μM complex by 10–20 μM dansylated human p53TAD peptide; K D = k off/k on.
For assay [2], the target named is T1, MDM2_(D. rerio) SWIB domain (zebra fish (Danio rerio)).
T1 construct: four residues left at the N-terminus after PreScission digestion, GPGS or GPMG; which of the two for this variant is in Excel File 1 in Data S1; MDM2, zebra fish, SWIB domain; Construct limits are in Excel File 1 in Data S1; also called zebra fish MDM2; source: E. coli BL21 (DE3) or BL21 (DE3) pLys, purified (Ni Sepharose or glutathione agarose, PreScission cleavage, SEC); not shown: …
T1 sequence (O42354 whole entry, looked up): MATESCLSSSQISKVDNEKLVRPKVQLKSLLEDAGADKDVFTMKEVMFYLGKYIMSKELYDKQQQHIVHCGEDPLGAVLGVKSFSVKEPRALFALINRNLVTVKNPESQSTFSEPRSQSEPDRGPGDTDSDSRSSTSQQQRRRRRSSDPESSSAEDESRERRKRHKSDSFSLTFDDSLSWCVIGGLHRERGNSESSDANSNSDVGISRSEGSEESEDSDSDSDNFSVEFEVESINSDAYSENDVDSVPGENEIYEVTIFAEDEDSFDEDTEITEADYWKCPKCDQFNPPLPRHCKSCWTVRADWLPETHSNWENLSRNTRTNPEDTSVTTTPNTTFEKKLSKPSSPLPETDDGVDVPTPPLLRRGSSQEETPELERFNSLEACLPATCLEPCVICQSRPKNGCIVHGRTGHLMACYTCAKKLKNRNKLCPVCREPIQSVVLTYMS
The description is as above.

The target of assay [3] is T2, MDM2_(H. sapiens) SWIB domain (human (Homo sapiens)).
T2 construct: four residues left at the N-terminus after PreScission digestion, GPGS or GPMG; which of the two for this variant is in Excel File 1 in Data S1; MDM2, human, SWIB domain; the limits of the human construct itself are in Excel File 1 in Data S1; also called human MDM2; MDM2_(Human); source: E. coli BL21 (DE3) or BL21 (DE3) pLys, purified (Ni Sepharose or glutathione agarose, PreScission cleavage, …)
The assay is described as above.

The next assay concerns the target T3, p53TAD_(G. gallus)^14–26 (chicken (Gallus gallus), acetylated).
T3 construct: numbers count on: human p53 by alignment; also called chicken p53TAD; source: synthetic peptide, bought (Ontores Biotechnology, GL Biochem Shanghai Ltd or GeneCust)
Described as above.

The target of assay [4] is MDM2_(L. camtschaticum) SWIB domain (arctic lamprey (Lethenteron …)). In words: fluorescence polarisation; displacement: FITC-labeled human p53TAD 15–26 (6 or 10 nM) and MDM2 constant, dilution series of unlabeled peptide; K D calculated from IC50; room temperature, same buffer as the kinetics.
Assay [5] has as its target T2, MDM2_(H. sapiens) SWIB domain. Described as above.
Assay [6] addresses MDM2_(Fishes/Tetrapods)^AltAll. In words: stopped-flow fluorescence kinetics; 10°C, 20 mM sodium phosphate pH 7.4, 150 mM NaCl, 1 mM TCEP; Trp23 emission; MDM2 constant at 0.5–2 μM, p53TAD varied 1–10 μM for k on; k off from displacement of the 1 μM:1 μM complex by 10–20 μM dansylated human p53TAD peptide; K D = k off/k on.
For assay [7], the target named is MDM2_(Reptiles/Mammals)^AltAll. The description is as above.
In assay [8] the target is MDM2_(H. sapiens) SWIB domain (human (Homo sapiens)). Described as above.
Assay [9] concerns the target MDM2_(Reptiles/Mammals)^ML. The assay is described as above.

Chain of MDM2_(L. camtschaticum) SWIB domain (arctic lamprey (Lethenteron …)) (chain, as listed by the source): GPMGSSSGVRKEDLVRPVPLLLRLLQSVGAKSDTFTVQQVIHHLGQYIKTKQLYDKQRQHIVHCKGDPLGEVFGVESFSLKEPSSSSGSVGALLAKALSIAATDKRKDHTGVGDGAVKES

Regarding SQETFSDLWNML (not fully specified (N-terminus); also: acetylated, site not given here) [p53TAD_(Fishes/Tetrapods)^ML], the Kd in [1] came out at 145 nM; in assay [2] it was 93 nM; in assay [3], 8 nM. As to SQETFNHLWNTL (not fully specified (N-terminus); also: acetylated, site not given here) [p53TAD_(Bilateria)^ML], the dissociation constant Kd in assay [1] was 2100 nM; in assay [3], 600 nM. SQDTFSDLWNQL (not fully specified (N-terminus); also: acetylated, site not given here) [p53TAD1R^AltAll]: the Kd is 370 nM in [1] and 24 nM in assay [3].

B1: MDM2_(G. gallus) SWIB domain (domain or fragment)
chain: SPVSASEQEALVKPKPLLLKLLKLAGAEKDTFTMKEVIFYLGQYIMSKQLYDEKEQHIVHCANDLLGDLFGVTSFSVKEHRRIYSMISRNLIAINQQDSTLAVPPEDDA
As for B1, the affinity with p53TAD_(G. gallus)^14–26, expressed as Kd, was 90 nM. Consider CVDDFDRVWQGGV (not fully specified (N-terminus); also: acetylated, site not given here) [p53TAD_(L. camtschaticum)], for which the Kd in [4] was 250000 nM.

With Ac-NDVELAELPWAPEDVI [p53TAD_(I. scapularis)], in assay [5], the Kd was 400000 nM. For the molecule SQESFSDLWNLL (not fully specified (N-terminus); also: acetylated, site not given here) [p53TAD_(Fishes/Tetrapods)^AltAll], the Kd in [6] was 98 nM; in assay [3], 19 nM. Consider SQETFSDLWNML (not fully specified (N-terminus); also: acetylated, site not given here) [p53TAD_(Reptiles/Mammals)^AltAll], for which the equilibrium dissociation constant (Kd) in assay [7] worked out at 200 nM; in assay [3], 9.5 nM. With DSQETFAELWEKN (not fully specified (N-terminus); also: acetylated, site not given here) [p53TAD_(D. rerio)^insertT18], the Kd in assay [2] was found to be 2300 nM; in assay [8] it was 4900 nM. On to SQETFSDLWNLL (not fully specified (N-terminus); also: acetylated, site not given here) [p53TAD_(Reptiles/Mammals)^ML], for which the results for the Kd in [9] and in [3] were 120 nM and 8 nM, respectively.

Regarding SQETFNHLWNML (not fully specified (N-terminus); also: acetylated, site not given here) [p53TAD1R^ML], the Kd in [1] is 660 nM; in [3], 82 nM. The corresponding values for SQETFDFLWKSL (not fully specified (N-terminus); also: acetylated, site not given here) [p53TAD_(Bilateria)^AltAll] are 650 nM and 170 nM.
